Data on three substances can be found in paper PMC10986000.

The target in assay [1] is His-PrsA truncated mutant D3 (amino acids 1 to 146 and 251 to 320; PPIase domain deleted) (S. aureus HG001). Kind of assay: cross-linking; E. coli BL21(DE3) cells expressing His-PrsA, D3 or D4 treated with 1% formaldehyde, 5 min, room temperature, 0.1 M sodium phosphate pH 6.8; His-tagged proteins purified on Ni-NTA; SDS-PAGE after 37 °C or 95 °C, Coomassie, immunoblot, LC-MS/MS of bands. A general note: In western blotting, separated proteins are transferred to a membrane and probed.

Assay [2] has as its target full-length His-tagged PrsA (amino acid 1 to 320) (S. aureus HG001). The description is as above.
In assay [3] the target is protein A (SpA) on the surface of S. aureus HG001 (S. aureus (endogenous in HG001)) (UniProt P02976). Kind of assay: flow cytometry on cells; about 10^5 CFU S. aureus HG001 (also HG001ΔprsA and HG001ΔprsA(pGHL-PrsA)) in 2% BSA-PBS incubated with mouse IgG at 37 °C for 30 min, then FITC-conjugated anti-mouse IgG at 4 °C for 30 min; percent bound relative to the unstained population.
UniProt P02976, sequence (P02976 37-485): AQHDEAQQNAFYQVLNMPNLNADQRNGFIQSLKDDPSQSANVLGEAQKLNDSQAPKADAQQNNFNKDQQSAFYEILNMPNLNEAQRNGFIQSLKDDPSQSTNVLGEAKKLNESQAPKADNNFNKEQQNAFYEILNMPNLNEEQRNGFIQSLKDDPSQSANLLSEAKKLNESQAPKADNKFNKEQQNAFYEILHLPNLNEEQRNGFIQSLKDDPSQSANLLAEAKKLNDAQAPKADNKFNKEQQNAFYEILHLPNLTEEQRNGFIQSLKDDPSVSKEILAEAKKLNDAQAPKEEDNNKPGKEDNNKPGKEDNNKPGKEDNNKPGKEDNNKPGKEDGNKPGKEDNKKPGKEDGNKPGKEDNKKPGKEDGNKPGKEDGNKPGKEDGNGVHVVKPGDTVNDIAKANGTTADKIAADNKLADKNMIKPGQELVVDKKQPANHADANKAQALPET

Usually stoichiometry N stands for a count of units in the complex or per binding partner. For the substance “His-PrsA truncated mutant D3 (amino acids 1 to 146 and 251 to 320; PPIase domain deleted) (domain or fragment)”, the stoichiometry N in assay [1] worked out at 2.
“full-length His-tagged PrsA (amino acid 1 to 320) (natural protein)”: the stoichiometry N in assay [2] stood at 2.
Substance mouse immunoglobulin IgG yielded a percent of S. aureus binding to IgG in assay [3] of 41.8%.
